The labels stand for the following.
B1: Cytochrome b5, P00171 (parent)
chain: MAEESSKAVKYYTLEEIQKHNNSKSTWLILHYKVYDLTKFLEEHPGGEEVLREQAGGDATENFEDVGHSTDARELSKTFIIGELHPDDRSKITKPSESIITTIDSNPSWWTNWLIPAISALFVALIYHLYTSEN

In the data set the parent is B1. As to conditions: Bos taurus, pH 7, K2HPO4 5 mM, transition: 2, reversible: Yes, structure 1CYO, whole UniProt chain shown; for denaturant m value / denaturant midpoint (higher = more stable) / unfolding free energy: 25 °C, Urea; for Tm / change of melting temperature, mutant - wild type (higher = more stable): Thermal.

Regarding S23C, under “Absorbance”, the denaturant m value turned out to be 0.97 kcal/mol/M, the “denaturant midpoint (higher = more stable)” value (“denaturant midpoint” for short) is 6.5 M, the unfolding free energy stood at 6.9 kcal/mol and the Tm was found to be 75.5 °C. Besides, the “change of melting temperature, mutant - wild type (higher = more stable)” value (from here on “change of melting temperature, mutant”) (Absorbance) was 0.3 °C. Also, where the note is “Fluorescence”, the denaturant m value is 0.56 kcal/mol/M, the “denaturant midpoint” value worked out at 2.5 M, the unfolding free energy came out at 1.4 kcal/mol and the Tm stood at 52.7 °C. In addition, the “change of melting temperature, mutant” value (Fluorescence) was found to be 2.6 °C.

For the variant S23C R52C, under “Absorbance”, the denaturant m value turned out to be 0.81 kcal/mol/M, the “denaturant midpoint” value was found to be 6.4 M, the unfolding free energy turned out to be 5.2 kcal/mol and the Tm is 76 °C. Where the note is “Absorbance”, the “change of melting temperature, mutant” value was 0.8 °C. Under “Fluorescence”, the denaturant m value worked out at 0.93 kcal/mol/M, the “denaturant midpoint” value was found to be 3.7 M, the unfolding free energy was 3.4 kcal/mol and the Tm came out at 60.8 °C. The “change of melting temperature, mutant” value (Fluorescence) is 10.7 °C.

The Tm is the temperature at which the thermal transition is half complete.

These data come from FireProtDB (doi:10.1021/bi982158q).
